Consider one molecule from PMC6661505.

What all share (experiment): bead flow cytometry
Data set [1] concerns the target mouse FGFR3c-Fc (mouse, UniProt Q61851 21-369).
In data set [2] the target is mouse FGFR3b-Fc (mouse, UniProt Q61851-2 21-371).
Data set [3] has as its target human FGFR3c-Fc (human, UniProt P22607 23-375).
In data set [4] the target is human FGFR3b-Fc (human, UniProt P22607-2 23-377).
Data set [5] addresses mouse FGFR2c-Fc (mouse, UniProt P21803 22-377).
The target of data set [6] is mouse FGFR1c-Fc (mouse, UniProt P16092 22-376).
Data set [7] has as its target human FGFR2c-His (human, UniProt P21802 22-377).
Data set [8] addresses human FGFR1c-His (human, UniProt P11362 22-376).

human FGFR2c-His, sequence (P21802 22-377): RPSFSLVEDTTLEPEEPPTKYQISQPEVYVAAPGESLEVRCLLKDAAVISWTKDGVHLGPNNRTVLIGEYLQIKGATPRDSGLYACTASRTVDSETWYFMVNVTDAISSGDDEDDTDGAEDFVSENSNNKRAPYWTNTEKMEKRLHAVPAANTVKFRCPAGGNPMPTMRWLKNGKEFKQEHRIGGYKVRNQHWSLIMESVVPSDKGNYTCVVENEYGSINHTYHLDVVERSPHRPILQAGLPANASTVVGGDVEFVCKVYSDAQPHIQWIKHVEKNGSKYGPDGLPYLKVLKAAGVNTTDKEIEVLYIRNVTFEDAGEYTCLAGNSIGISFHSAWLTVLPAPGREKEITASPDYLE
mouse FGFR2c-Fc, sequence (P21803 22-377): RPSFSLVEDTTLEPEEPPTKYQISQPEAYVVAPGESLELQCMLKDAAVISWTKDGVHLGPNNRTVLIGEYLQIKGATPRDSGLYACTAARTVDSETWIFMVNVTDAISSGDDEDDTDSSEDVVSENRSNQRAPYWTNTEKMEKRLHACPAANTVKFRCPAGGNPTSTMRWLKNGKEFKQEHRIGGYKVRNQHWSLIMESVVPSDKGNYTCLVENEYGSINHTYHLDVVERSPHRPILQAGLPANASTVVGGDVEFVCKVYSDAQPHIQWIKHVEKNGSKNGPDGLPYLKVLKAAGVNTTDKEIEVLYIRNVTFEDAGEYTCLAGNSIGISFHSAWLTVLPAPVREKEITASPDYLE
human FGFR1c-His, sequence (P11362 22-376): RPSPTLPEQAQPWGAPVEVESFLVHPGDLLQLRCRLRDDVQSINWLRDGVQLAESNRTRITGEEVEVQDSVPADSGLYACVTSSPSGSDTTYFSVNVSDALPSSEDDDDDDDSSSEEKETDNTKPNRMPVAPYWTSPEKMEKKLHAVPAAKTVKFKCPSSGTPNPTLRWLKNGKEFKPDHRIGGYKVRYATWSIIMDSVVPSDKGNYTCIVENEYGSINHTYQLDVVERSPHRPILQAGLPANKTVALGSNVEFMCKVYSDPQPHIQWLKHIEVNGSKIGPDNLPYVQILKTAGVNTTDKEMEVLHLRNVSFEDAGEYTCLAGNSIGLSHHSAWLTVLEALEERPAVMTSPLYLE
mouse FGFR1c-Fc, sequence (P16092 22-376): as the sequence (P11362 22-376) above, with S3A, A15V, F22L, A53V, Q68R, V71I, M128R counted along it

In the case of GCCGAUGGUUUUGUGGCCGUUUGAGGUUCCUACGGC (structured_RNA, 2'-fluoro C and U; 3' inverted dT (not in string)) [iR3], the Kd (as a rule, the equilibrium constant for the complex coming apart) in data set [1] is 36.6 ± 7.1 nM; in data set [2] it was roughly 62 nM; in data set [3] it was 55.5 ± 8.4 nM; in data set [4] it was roughly 48 nM. For the same molecule, the binding result in data set [5], in data set [6], in data set [7] and in data set [8] was “no binding” in each case.
